Laboratory results published in PMC2697320, “Identification of the high affinity binding site in the Streptococcus intermedius toxin intermedilysin for its membrane receptor, the human complement regulator CD59” (Molecular Immunology, 2009).

Biological target: Human CD59 on human erythrocytes (human (endogenous in human erythrocytes)) (UniProt P13987)
Sequence (P13987 26-102): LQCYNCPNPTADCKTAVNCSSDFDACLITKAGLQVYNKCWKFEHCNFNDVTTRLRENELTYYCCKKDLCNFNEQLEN

ILY LI > TV mutant (natural protein)
fold increase of the dose required for 50% hemolysis of human erythrocytes against native ILY: 2.5 fold
